Reference: publication PMC4931470

What was measured:
[1] = biological target: E22P-Aβ42; experiment: SEC; Superdex75 10/300GL, PBS pH 7.4, 0.6 mL/min; Aβ solution 25 μM incubated at 37 °C for the indicated duration, supernatant after centrifugation (17,860 x g, 4 °C, 10 min) analysed; dextran standards
[2] = biological target: E22P-Aβ42 dimer; experiment: as above

stoichiometry N [1] | stoichiometry N [2] | Substance
6 to 8 | – | E22P-Aβ42 (peptide)
– | 6 to 8 | E22P-Aβ42 dimer (peptide)
